{"source": "patent US20110306057A1", "about": "(Dana-Farber, published 2011)", "binders": {"B1": {"name": "PP2A regulatory subunit B55α (other, UniProt P63151 2-447, looked up)", "chain": "AGAGGGNDIQWCFSQVKGAVDDDVAEADIISTVEFNHSGELLATGDKGGRVVIFQQEQENKIQSHSRGEYNVYSTFQSHEPEFDYLKSLEIEEKINKIRWLPQKNAAQFLLSTNDKTIKLWKISERDKRPEGYNLKEEDGRYRDPTTVTTLRVPVFRPMDLMVEASPRRIFANAHTYHINSISINSDYETYLSADDLRINLWHLEITDRSFNIVDIKPANMEELTEVITAAEFHPNSCNTFVYSSSKGTIRLCDMRASALCDRHSKLFEEPEDPSNRSFFSEIISSISDVKFSHSGRYMMTRDYLSVKIWDLNMENRPVETYQVHEYLRSKLCSLYENDCIFDKFECCWNGSDSVVMTGSYNNFFRMFDRNTKRDITLEASRENNKPRTVLKPRKVCASGKRKKDEISVDSLDFNKKILHTAWHPKENIIAVATTNNLYIFQDKVN", "notes": "Endogenous protein found in anti-FLAG immune complexes by immunoblot"}, "B2": {"name": "HA-tagged RalA S11A mutant (enzyme, not shown: small tags and cut ends)", "chain": "MAANKPKGQNALALHKVIMVGSGGVGKSALTLQFMYDEFVEDYEPTKADSYRKKVVLDGEEVQIDILDTAGQEDYAAIRDNYFRSGEGFLCVFSITEMESFAATADFREQILRVKEDENVPFLLVGNKSDLEDKRQVSVEEAKNRAEQWNVNYVETSAKTRANVDKVFFDLMREIRARKMEDSKEKNGKKKRKSLAKRIRERC", "notes": "also called S11A RalA mutant"}, "B3": {"name": "cancer-derived FLAG-tagged PP2A Aβ mutant D504G (other, UniProt P30154 1-601, looked up, not shown: small tags and cut ends)", "chain": "MAGASELGTGPGAAGGDGDDSLYPIAVLIDELRNEDVQLRLNSIKKLSTIALALGVERTRSELLPFLTDTIYDEDEVLLALAEQLGNFTGLVGGPDFAHCLLPPLENLATVEETVVRDKAVESLRQISQEHTPVALEAYFVPLVKRLASGDWFTSRTSACGLFSVCYPRASNAVKAEIRQQFRSLCSDDTPMVRRAAASKLGEFAKVLELDSVKSEIVPLFTSLASDEQDSVRLLAVEACVSIAQLLSQDDLETLVMPTLRQAAEDKSWRVRYMVADRFSELQKAMGPKITLNDLIPAFQNLLKDCEAEVRAAAAHKVKELGENLPIEDRETIIMNQILPYIKELVSDTNQHVKSALASVIMGLSTILGKENTIEHLLPLFLAQLKDECPDVRLNIISNLDCVNEVIGIRQLSQSLLPAIVELAEDAKWRVRLAIIEYMPLLAGQLGVEFFDEKLNSLCMAWLVDHVYAIREAATNNLMKLVQKFGTEWAQNTIVPKVLVMANGPNYLHRMTTLFCINALSEACGQEITTKQMLPIVLKMAGDQVANVRFNVAKSLQKIGPILDTNALQGEVKPVLQKLGQDEDMDVKYFAQEAISVLALA", "notes": "Overexpressed in HEK TER cells"}, "B4": {"name": "cancer-derived FLAG-tagged PP2A Aβ mutant K343E (other, UniProt P30154 1-601, looked up, not shown: small tags and cut ends)", "chain": "B3 chain with K343E, G504D", "notes": "as for B3"}, "B5": {"name": "cancer-derived FLAG-tagged PP2A Aβ mutant L101P (other, UniProt P30154 1-601, looked up, not shown: small tags and cut ends)", "chain": "B3 chain with L101P, G504D", "notes": "as for B3"}, "B6": {"name": "cancer-derived FLAG-tagged PP2A Aβ mutant L101P/V448A (other, UniProt P30154 1-601, looked up, not shown: small tags and cut ends)", "chain": "B3 chain with L101P, V448A, G504D", "notes": "as for B3"}, "B7": {"name": "cancer-derived FLAG-tagged PP2A Aβ mutant V448A (other, UniProt P30154 1-601, looked up, not shown: small tags and cut ends)", "chain": "B3 chain with V448A, G504D", "notes": "as for B3"}, "B8": {"name": "cancer-derived FLAG-tagged PP2A Aβ mutant V545A (other, UniProt P30154 1-601, looked up, not shown: small tags and cut ends)", "chain": "B3 chain with G504D, V545A", "notes": "as for B3"}, "B9": {"name": "cancer-derived FLAG-tagged PP2A Aβ mutant ΔE344-E388 (other)", "chain": "MDYKDDDDKAGASELGTGPGAAGGDGDDSLYPIAVLIDELRNEDVQLRLNSIKKLSTIALALGVERTRSELLPFLTDTIYDEDEVLLALAEQLGNFTGLVGGPDFAHCLLPPLENLATVEETVVRDKAVESLRQISQEHTPVALEAYFVPLVKRLASGDWFTSRTSACGLFSVCYPRASNAVKAEIRQQFRSLCSDDTPMVRRAAASKLGEFAKVLELDSVKSEIVPLFTSLASDEQDSVRLLAVEACVSIAQLLSQDDLETLVMPTLRQAAEDKSWRVRYMVADRFSELQKAMGPKITLNDLIPAFQNLLKDCEAEVRAAAAHKVKELGENLPIEDRETIIMNQILPYIKCPDVRLNIISNLDCVNEVIGIRQLSQSLLPAIVELAEDAKWRVRLAIIEYMPLLAGQLGVEFFDEKLNSLCMAWLVDHVYAIREAATNNLMKLVQKFGTEWAQNTIVPKVLVMANDPNYLHRMTTLFCINALSEACGQEITTKQMLPIVLKMAGDQVANVRFNVAKSLQKIGPILDTNALQGEVKPVLQKLGQDEDMDVKYFAQEAISVLALA", "notes": "Deletion of exon 9, in-frame deletion of 45 amino acids; Overexpressed in HEK TER cells; also called D344-388"}, "B10": {"name": "GST-tagged SV40 small t antigen (ST) (other)", "chain": "MDKVLNREESLQLMDLLGLERSAWGNIPLMRKAYLKKCKEFHPDKGGDEEKMKKMNTLYKKMEDGVKYAHQPDFGGFWDATEVFASSLNPGVDAMYCKQWPECAKKMSANCICLLCLLRMKHENRKLYRKDPLVWVDCYCFDCFRMWFGLDLCEGTLLLWCDIIGQTTYRDLKL", "notes": "also called GST-tagged ST; SV40 ST; not shown: GST tag"}, "B11": {"name": "HA-tagged wild-type RalA (enzyme, not shown: small tags and cut ends)", "chain": "B2 chain with A11S", "notes": "phosphorylation state not separated; also called HA-tagged RalA; HA-RalA"}, "B12": {"name": "wild type (WT) FLAG epitope-tagged version of PP2A Aβ (other, UniProt P30154 1-601, looked up, not shown: small tags and cut ends)", "chain": "B3 chain with G504D", "notes": "also called wtPP2A Aβ; FLAG-tagged Aβ"}, "B13": {"name": "cancer-derived FLAG-tagged PP2A Aβ mutant G8R (other, UniProt P30154 1-601, looked up, not shown: small tags and cut ends)", "chain": "B3 chain with G8R, G504D", "notes": "Overexpressed in HEK TER cells; the shRNA-resistant form carries silent substitutions only; also called G8R Aβ mutant"}, "B14": {"name": "cancer-derived FLAG-tagged PP2A Aβ mutant P65S (other, UniProt P30154 1-601, looked up, not shown: small tags and cut ends)", "chain": "B3 chain with P65S, G504D", "notes": "as for B3"}}, "note": "Positions count from the first letter of the chain named. Names and notes keep the numbering of the source.", "data": [{"target": "B12", "experiment": "anti-FLAG co-IP from HEK TER cells, immunoblot", "values": [{"binder": "B1", "binding result": "binds"}]}, {"target": "B12", "experiment": "anti-FLAG agarose co-IP from 293T cells, immunoblot", "experimental": "(A) Immunoblot showing phosphorylated RalA and total RalA levels in HEK TER cells expressing shGFP or shAβ. Immunoprecipitations were performed using a phosphoserine antibody. Immunoblotting was performed using anti-Ral-antibody. WCL=whole cell lysate. (B) Immunoblot showing interaction between Aβ and RalA mutants.\nTo determine if these newly identified serine residues were the target of Aβ-containing PP2A complexes, we replaced each of these three serine residues with alanine using site-directed mutagenesis to generate HA-tagged S11A, S183A and S194A RalA mutants. […] We then determined whether these RalA mutants retained the ability to bind Aβ, as follows. Briefly, Aβ-specific complexes were isolated using anti-FLAG agarose followed by immunoblotting using FLAG or RalA specific antibodies.", "values": [{"binder": "B2", "binding result": "binds"}]}, {"target": "B9", "experiment": "anti-FLAG co-IP from HEK TER cells, immunoblot, densitometry", "values": [{"binder": "B1", "binding result": "no binding"}]}, {"target": "T1, PP2A regulatory subunit B56γ (human (endogenous in human HEK TER …, UniProt Q13362 1-524))", "T1 sequence (Q13362 whole entry)": "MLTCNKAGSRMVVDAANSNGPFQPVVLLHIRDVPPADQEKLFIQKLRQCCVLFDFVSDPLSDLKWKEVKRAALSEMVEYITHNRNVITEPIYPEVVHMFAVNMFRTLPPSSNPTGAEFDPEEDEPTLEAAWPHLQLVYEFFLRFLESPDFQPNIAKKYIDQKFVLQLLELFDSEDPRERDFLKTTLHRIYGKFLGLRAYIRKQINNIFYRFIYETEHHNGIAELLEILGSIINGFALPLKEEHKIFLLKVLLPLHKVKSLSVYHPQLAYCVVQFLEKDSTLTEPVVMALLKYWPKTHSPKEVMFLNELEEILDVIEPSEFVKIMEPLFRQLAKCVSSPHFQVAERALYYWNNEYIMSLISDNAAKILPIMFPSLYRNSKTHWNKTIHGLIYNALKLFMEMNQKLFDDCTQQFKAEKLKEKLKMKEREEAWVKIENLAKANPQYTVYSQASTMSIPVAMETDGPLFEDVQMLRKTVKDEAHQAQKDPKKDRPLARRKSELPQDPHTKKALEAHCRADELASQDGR", "experiment": "anti-FLAG co-IP from HEK TER cells, immunoblot, densitometry", "values": [{"binder": "B3", "binding result": "no binding"}, {"binder": "B4", "binding result": "no binding"}, {"binder": "B5", "binding result": "no binding"}, {"binder": "B6", "binding result": "no binding"}, {"binder": "B7", "binding result": "no binding"}, {"binder": "B8", "binding result": "no binding"}, {"binder": "B9", "binding result": "no binding"}]}, {"target": "B6", "experiment": "anti-FLAG co-IP from HEK TER cells, immunoblot, densitometry", "values": [{"binder": "B1", "binding result": "no binding"}]}, {"target": "B12", "experiment": "GST pull-down with glutathione-agarose from 293T lysates, immunoblot", "values": [{"binder": "B10", "binding result": "no binding"}]}, {"target": "B12", "experiment": "reciprocal co-IP (anti-HA, anti-FLAG agarose) from 293T cells, immunoblot", "experimental": "HA-tagged wild-type RalA were generated in the retroviral vectors pPs-neo and pBabe-puro. […] The supernatants from the first immunoprecipitation were sequentially incubated with anti-FLAG-agarose (M2), or anti-HA-agarose (HA7) in reciprocal manner. […] Densitometry analysis was performed by using Scion Image Software.", "values": [{"binder": "B11", "binding result": "binds"}]}, {"target": "B1", "experiment": "anti-FLAG co-IP from HEK TER cells, immunoblot, densitometry; +++ >90%, ++ 50-90%, + <50%", "units": {"binding level (percent, co-immunoprecipitation densitometry)": "%"}, "values": [{"binder": "B12", "binding level (percent, co-immunoprecipitation densitometry)": "> 90"}, {"binder": "B3", "binding level (percent, co-immunoprecipitation densitometry)": "50 to 90"}, {"binder": "B13", "binding level (percent, co-immunoprecipitation densitometry)": "> 90"}, {"binder": "B4", "binding level (percent, co-immunoprecipitation densitometry)": "50 to 90"}, {"binder": "B5", "binding level (percent, co-immunoprecipitation densitometry)": "< 50"}, {"binder": "B14", "binding level (percent, co-immunoprecipitation densitometry)": "> 90"}, {"binder": "B7", "binding level (percent, co-immunoprecipitation densitometry)": "< 50"}, {"binder": "B8", "binding level (percent, co-immunoprecipitation densitometry)": "> 90"}]}, {"target": "T2, PP2A regulatory subunit B56α (human (endogenous in human HEK TER …, UniProt Q15172 2-486, limits assumed))", "T2 construct": "Endogenous protein found in anti-FLAG immune complexes by immunoblot", "T2 sequence (Q15172 2-486 limits assumed)": "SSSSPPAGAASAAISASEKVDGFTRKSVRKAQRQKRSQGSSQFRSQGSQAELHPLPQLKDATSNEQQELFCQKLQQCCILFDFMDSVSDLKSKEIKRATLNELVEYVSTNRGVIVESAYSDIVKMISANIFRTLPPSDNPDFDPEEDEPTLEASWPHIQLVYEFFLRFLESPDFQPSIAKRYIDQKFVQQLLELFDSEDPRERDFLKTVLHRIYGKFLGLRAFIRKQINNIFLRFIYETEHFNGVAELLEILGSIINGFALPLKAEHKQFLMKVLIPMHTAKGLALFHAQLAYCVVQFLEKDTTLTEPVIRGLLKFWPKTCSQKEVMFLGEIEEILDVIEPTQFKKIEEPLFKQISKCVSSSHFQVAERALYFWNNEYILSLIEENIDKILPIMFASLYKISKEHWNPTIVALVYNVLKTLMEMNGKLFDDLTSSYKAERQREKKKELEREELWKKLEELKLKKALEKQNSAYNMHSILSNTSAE", "experiment": "anti-FLAG co-IP from HEK TER cells, immunoblot, densitometry; +++ >90%, ++ 50-90%, + <50%", "units": {"binding level (percent, co-immunoprecipitation densitometry)": "%"}, "values": [{"binder": "B12", "binding level (percent, co-immunoprecipitation densitometry)": "> 90"}, {"binder": "B3", "binding level (percent, co-immunoprecipitation densitometry)": "> 90"}, {"binder": "B13", "binding level (percent, co-immunoprecipitation densitometry)": "> 90"}, {"binder": "B4", "binding level (percent, co-immunoprecipitation densitometry)": "< 50"}, {"binder": "B14", "binding level (percent, co-immunoprecipitation densitometry)": "< 50"}, {"binder": "B8", "binding level (percent, co-immunoprecipitation densitometry)": "< 50"}]}, {"target": "T1, PP2A regulatory subunit B56γ", "experiment": "anti-FLAG co-IP from HEK TER cells, immunoblot, densitometry; +++ >90%, ++ 50-90%, + <50%", "units": {"binding level (percent, co-immunoprecipitation densitometry)": "%"}, "values": [{"binder": "B13", "binding level (percent, co-immunoprecipitation densitometry)": "< 50"}, {"binder": "B14", "binding level (percent, co-immunoprecipitation densitometry)": "< 50"}]}, {"target": "T3, PP2A regulatory subunit B56ε (human (endogenous in human HEK TER …, UniProt Q16537 2-467, limits assumed))", "T3 construct": "Endogenous protein found in anti-FLAG immune complexes by immunoblot", "T3 sequence (Q16537 2-467 limits assumed)": "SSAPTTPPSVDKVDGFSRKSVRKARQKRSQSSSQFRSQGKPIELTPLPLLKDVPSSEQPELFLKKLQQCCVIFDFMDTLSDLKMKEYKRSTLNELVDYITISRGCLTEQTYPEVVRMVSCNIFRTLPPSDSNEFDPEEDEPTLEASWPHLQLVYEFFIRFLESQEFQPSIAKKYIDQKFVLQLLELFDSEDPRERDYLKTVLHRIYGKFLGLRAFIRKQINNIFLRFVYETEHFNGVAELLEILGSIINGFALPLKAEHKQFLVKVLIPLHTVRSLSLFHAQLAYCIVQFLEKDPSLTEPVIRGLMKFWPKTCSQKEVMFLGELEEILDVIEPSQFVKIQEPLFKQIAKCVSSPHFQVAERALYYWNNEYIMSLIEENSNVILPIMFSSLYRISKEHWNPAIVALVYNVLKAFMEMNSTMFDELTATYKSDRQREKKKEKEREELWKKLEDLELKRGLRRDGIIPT", "experiment": "anti-FLAG co-IP from HEK TER cells, immunoblot, densitometry; +++ >90%, ++ 50-90%, + <50%", "units": {"binding level (percent, co-immunoprecipitation densitometry)": "%"}, "values": [{"binder": "B12", "binding level (percent, co-immunoprecipitation densitometry)": "> 90"}, {"binder": "B3", "binding level (percent, co-immunoprecipitation densitometry)": "> 90"}, {"binder": "B13", "binding level (percent, co-immunoprecipitation densitometry)": "> 90"}, {"binder": "B4", "binding level (percent, co-immunoprecipitation densitometry)": "50 to 90"}, {"binder": "B5", "binding level (percent, co-immunoprecipitation densitometry)": "> 90"}, {"binder": "B6", "binding level (percent, co-immunoprecipitation densitometry)": "< 50"}, {"binder": "B14", "binding level (percent, co-immunoprecipitation densitometry)": "> 90"}, {"binder": "B7", "binding level (percent, co-immunoprecipitation densitometry)": "< 50"}, {"binder": "B8", "binding level (percent, co-immunoprecipitation densitometry)": "< 50"}]}, {"target": "T4, PP2A catalytic subunit Cα (human (endogenous in human HEK TER or …, UniProt P67775 1-309))", "T4 construct": "Endogenous protein found in anti-FLAG immune complexes by immunoblot or mass spectroscopy; also called PP2A catalytic Cα", "T4 sequence (P67775 whole entry)": "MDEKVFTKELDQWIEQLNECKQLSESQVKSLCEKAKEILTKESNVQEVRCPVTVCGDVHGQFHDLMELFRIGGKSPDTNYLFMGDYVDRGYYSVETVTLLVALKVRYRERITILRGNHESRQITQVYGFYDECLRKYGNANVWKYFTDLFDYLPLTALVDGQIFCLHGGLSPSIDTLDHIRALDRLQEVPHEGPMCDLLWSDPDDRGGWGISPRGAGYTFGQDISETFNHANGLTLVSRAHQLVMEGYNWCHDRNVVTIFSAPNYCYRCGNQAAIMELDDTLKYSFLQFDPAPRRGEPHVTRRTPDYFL", "experiment": "anti-FLAG co-IP from HEK TER cells, immunoblot, densitometry; +++ >90%, ++ 50-90%, + <50%", "units": {"binding level (percent, co-immunoprecipitation densitometry)": "%"}, "values": [{"binder": "B12", "binding level (percent, co-immunoprecipitation densitometry)": "> 90"}, {"binder": "B3", "binding level (percent, co-immunoprecipitation densitometry)": "< 50"}, {"binder": "B13", "binding level (percent, co-immunoprecipitation densitometry)": "50 to 90"}, {"binder": "B4", "binding level (percent, co-immunoprecipitation densitometry)": "< 50"}, {"binder": "B14", "binding level (percent, co-immunoprecipitation densitometry)": "50 to 90"}, {"binder": "B8", "binding level (percent, co-immunoprecipitation densitometry)": "< 50"}]}]}
